Assay results taken from patent US20060160743A1 (SANFORD BURNHAM MEDICAL RESEARCH INSTITUTE, published 2006).
One block for each binder: values may come before it. Where no end group is shown, it is not given here.

Legend:
[1] = target: T1, receptor clone 36 (entire coding sequence of unnamed RIKEN Fantom protein product putatively similar to … (murine, UniProt Q9CZB0 1-169)); assay: bacterial two-hybrid (BacterioMatch), peptide bait against heart cDNA target clone
T1 construct: also called MpcII-3-related protein; not shown: fusion partner encoded by the target vector of the mouse heart cDNA library (BacterioMatch two-hybrid); not described
T1 sequence: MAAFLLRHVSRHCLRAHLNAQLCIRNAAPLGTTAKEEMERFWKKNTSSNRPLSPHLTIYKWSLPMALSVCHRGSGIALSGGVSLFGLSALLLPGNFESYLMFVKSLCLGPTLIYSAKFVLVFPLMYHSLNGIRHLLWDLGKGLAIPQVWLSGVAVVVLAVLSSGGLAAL
Protocol: (§1) PCR products were digested with EcoRI and XhoI, and subcloned into the bait pBT plasmid (Stratagene; La Jolla, Calif.) to generate a recombinant library of baits designated “pBT-hp.” pBT-hp plasmids were transformed into XL1-Blue MRF' Kan competent cells, and 2 μl or 5 μl of cells plated on 100 mm LB-chloramphenicol plates to determine the total number of primary transformants. The remaining transformants were pooled and plated on 150 mm LB-chloramphenicol plates. […] The plates were then scraped, and bacteria harvested. After plating 2 μl and 5 μl of the harvested library in order to determine the size of the amplified library, the pool of pBT-hp plasmids was purified from the pooled bacteria using a commercially available maxiprep DNA column. Purified DNA was used to transform BacterioMatch® Two-Hybrid System reporter strain competent cells according to the manufacturer's instructions (Stratagene; La Jolla, Calif.).
(§2) Bacterial two-hybridization experiments were performed with the BacterioMatch® Two-Hybrid System (Stratagene) according to the manufacturer's instructions. Briefly, pBT-hp and heart cDNA library plasmids were co-transformed using 50 ng each plasmid. Aliquots (100 μl) of co-transformants were plated on selective LB plates (500 μg/ml carbenicillin) and incubated at 37° C. for 20 hours before scoring the plates for growth. […]

[2] = target: T2, murine bladder cancer-associated protein homolog (bc10), full length (murine, UniProt P62951 1-87); assay: competition: free peptide against … phage on bc10-transfected 293T cells
T2 construct: Expressed from full-length cDNA in a pMH6-derived plasmid in 293T cells
T2 sequence: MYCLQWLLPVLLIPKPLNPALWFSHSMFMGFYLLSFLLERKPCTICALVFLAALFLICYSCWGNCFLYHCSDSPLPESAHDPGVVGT
Protocol: (§3) Receptor transfections and phage binding assays were performed as follows. 293T cells were transfected with pMH6-derived plasmids (Roche Diagnostics; Indianapolis, Ind.) encoding HLP/CRIP2, Sigirr/TIR8, MpcII-3-related protein and bc10 using the Fugene transfection reagent (Roche Diagnostics). Briefly, 10 μg of plasmid was mixed with 700 μl of serum-free DMEM and 30 μl of Fugene transfection reagent and incubated for 15 minutes at room temperature before the mixture was added to cells. After forty-eight hours, cells were detached from culture dishes using EDTA and washed once with PBS. Phage displaying CRPPR (SEQ ID NO: 1), CKRAVR (SEQ ID NO: 7), […] (SEQ ID NO: 11) or […] (SEQ ID NO: 12) and nonrecombinant control phage (1×10⁹ p.f.u) were incubated with transfected cells for two hours at 4° C. Unbound phage were removed by five washes with 1% BSA in PBS. Bound phage were rescued by addition of bacteria; binding efficiencies were determined by plaque assay as described above.
(§4) Peptides for competition assays were synthesized at The Burnham Institute peptide facility using Fmoc chemistry in a solid-phase synthesizer prior to purification by HPLC and confirmation of their identity by mass spectrometry. […] After five washes with 1% PBS, bound phage were rescued and quantitated by plaque assay.

[3] = target: T3, receptor clone 5 (carboxy-terminal 92 amino acids, residues 117 to 208, of heart LIM-protein / cysteine-rich … (murine, UniProt P36201 117-208 (rat entry))); assay: bacterial two-hybrid (BacterioMatch), peptide bait against heart cDNA target clone
T3 construct: Target clone of the bacterial two-hybrid screen; also called HLP clone; HLP/CRIP2 fragment; not shown: fusion partner encoded by the target vector of the mouse heart cDNA library (BacterioMatch two-hybrid); not described
T3 sequence: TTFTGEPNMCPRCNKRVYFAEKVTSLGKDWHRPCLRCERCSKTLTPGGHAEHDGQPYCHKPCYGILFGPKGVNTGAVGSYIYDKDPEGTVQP
Protocol: as §1, §2

[4] = target: T4, murine cysteine-rich protein 2 / heart LIM-protein (HLP/CRIP2), full length (murine, UniProt Q9DCT8 1-208); assay: competition: free peptide against CRPPR phage on HLP/CRIP2-transfected 293T cells
T4 construct: also called ESP1
T4 sequence: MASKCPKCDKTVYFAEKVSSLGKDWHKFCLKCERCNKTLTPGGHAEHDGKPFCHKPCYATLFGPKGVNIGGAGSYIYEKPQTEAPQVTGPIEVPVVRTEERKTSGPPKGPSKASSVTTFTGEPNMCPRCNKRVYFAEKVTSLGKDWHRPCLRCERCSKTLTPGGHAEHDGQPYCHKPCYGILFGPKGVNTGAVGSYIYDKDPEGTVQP
Protocol: as §3, §4

[5] = target: T5, murine single Ig IL-1 receptor related protein (Sigirr/TIR8), full length (murine, UniProt Q9JLZ8 1-409); assay: competition: free peptide against CKRAVR phage on Sigirr/TIR8-transfected 293T cells
T5 construct: Expressed from full-length cDNA in a pMH6-derived plasmid in 293T cells
T5 sequence: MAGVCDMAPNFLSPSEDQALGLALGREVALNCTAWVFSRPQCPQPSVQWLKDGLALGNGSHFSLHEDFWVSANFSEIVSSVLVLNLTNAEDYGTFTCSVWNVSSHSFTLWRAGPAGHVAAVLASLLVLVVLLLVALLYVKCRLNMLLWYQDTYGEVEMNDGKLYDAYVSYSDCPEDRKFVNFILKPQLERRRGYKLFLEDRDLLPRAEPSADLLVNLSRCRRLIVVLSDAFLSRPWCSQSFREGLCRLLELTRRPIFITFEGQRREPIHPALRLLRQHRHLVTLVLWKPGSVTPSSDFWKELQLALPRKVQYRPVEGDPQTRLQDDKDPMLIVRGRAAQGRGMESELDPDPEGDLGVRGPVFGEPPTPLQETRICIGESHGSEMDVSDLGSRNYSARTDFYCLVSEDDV
Protocol: as §3, §4

- binding result [1]: binds
B1: CRSTRANPC (SEQ ID NO: 11), peptide insert in bait plasmid pBT-hp (peptide)
chain: CRSTRANPC
modifications: cysteine pairing not given here; also: part of pBT bait fusion protein, position of partner not given here
notes: not shown: fusion partner encoded by bait plasmid pBT (BacterioMatch two-hybrid); not described, position relative to the peptide n

- binding result [2]: binds
Binder: CPKTRRVPC (also called cognate peptide) [free synthetic peptide CPKTRRVPC (SEQ ID NO: 12)]

- binding result [3]: binds
B2: CRPPR (SEQ ID NO: 1), peptide insert in bait plasmid pBT-hp (peptide)
chain: CRPPR
notes: Hybrid bait protein of the bacterial two-hybrid screen; not shown: fusion partner encoded by bait plasmid pBT (BacterioMatch two-hybrid); not described, position relative to the peptide n

- binding result [4]: binds
Binder: CRPPR (also called CRPPR peptide) [free synthetic peptide CRPPR (SEQ ID NO: 1)]

- binding result [5]: binds
B3: free synthetic peptide CKRAVR (SEQ ID NO: 7) (peptide)
peptide: CKRAVR
notes: also called free peptide CKRAVR; cognate peptide
